Assay results from patent US20200283773, “NUCLEOLIN-TARGETING APTAMERS AND METHODS OF USING THE SAME” (Duke University, published 2020).

Key:
Details in all cases: label: 32P end label
[1] = molecular target: T1, nucleolin (NCL), recombinant (Homo sapiens, UniProt P19338 SEQ:1-710); assay: filter; 20 mM Hepes, 150 mM NaCl, 2 mM CaCl2, 0.01% BSA, 37 C; Bmax 53.6%
Procedure: (§1) Aptamers were end-labeled with ³²P. Nucleolin protein was serially diluted in 20 mM Hepes, 150 mM NaCl, 2 mM CaCl₂ and 0.01% bovine serum albumin and incubated with a trace amount of the ³²P-labeled RNA pools. After incubation at 37° C., unbound RNA was captured on a nylon membrane and RNA-nucleolin complexes captured on a nitrocellulose membrane. The fraction of protein-bound RNA was determined via phosphorimaging of the nitrocellulose and nylon membranes.

[2] = molecular target: T1, nucleolin (NCL), recombinant; assay: filter; 20 mM Hepes, 150 mM NaCl, 2 mM CaCl2, 0.01% BSA, 37 C; Bmax 33.6%, R2 0.6520
Procedure: as §1

[3] = molecular target: T1, nucleolin (NCL), recombinant; assay: filter; among truncates with best affinity; values only in figure
[4] = molecular target: T1, nucleolin (NCL), recombinant; assay: filter; 20 mM Hepes, 150 mM NaCl, 2 mM CaCl2, 0.01% BSA, 37 C; Bmax 32.76%
Procedure: as §1

[5] = molecular target: T1, nucleolin (NCL), recombinant; assay: filter; 20 mM Hepes, 150 mM NaCl, 2 mM CaCl2, 0.01% BSA, 37 C; Bmax 25.2%
Procedure: as §1

[6] = molecular target: T1, nucleolin (NCL), recombinant; assay: filter; 20 mM Hepes, 150 mM NaCl, 2 mM CaCl2, 0.01% BSA, 37 C; Bmax 23.08%
Procedure: as §1

[7] = molecular target: T1, nucleolin (NCL), recombinant; assay: filter; similar affinity to parent Ev3
[8] = molecular target: T1, nucleolin (NCL), recombinant; assay: filter; Ev2 described as non-binding aptamer control

T1 sequence (P19338 whole entry): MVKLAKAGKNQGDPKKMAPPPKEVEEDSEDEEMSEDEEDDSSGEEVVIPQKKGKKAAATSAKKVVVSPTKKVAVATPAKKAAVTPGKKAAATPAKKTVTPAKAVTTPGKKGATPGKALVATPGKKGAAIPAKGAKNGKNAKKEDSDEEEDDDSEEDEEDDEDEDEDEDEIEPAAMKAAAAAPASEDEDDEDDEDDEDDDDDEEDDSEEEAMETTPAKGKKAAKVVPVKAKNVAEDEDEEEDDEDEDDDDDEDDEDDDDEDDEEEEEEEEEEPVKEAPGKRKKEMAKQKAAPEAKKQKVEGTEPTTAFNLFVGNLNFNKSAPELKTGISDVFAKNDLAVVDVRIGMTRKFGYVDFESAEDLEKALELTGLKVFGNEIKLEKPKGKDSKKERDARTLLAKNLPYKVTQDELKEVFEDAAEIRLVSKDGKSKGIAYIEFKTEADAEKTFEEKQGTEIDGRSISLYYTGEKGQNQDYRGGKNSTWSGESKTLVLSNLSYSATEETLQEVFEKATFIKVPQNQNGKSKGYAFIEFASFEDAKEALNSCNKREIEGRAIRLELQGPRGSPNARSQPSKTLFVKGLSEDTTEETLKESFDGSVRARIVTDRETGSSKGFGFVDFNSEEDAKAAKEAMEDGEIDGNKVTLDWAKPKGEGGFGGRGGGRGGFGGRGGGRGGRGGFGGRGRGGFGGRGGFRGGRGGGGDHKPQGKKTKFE

B1: FAM-D (ssRNA)
RNA: GGGAGAGAGGAAGAGGGAUGGGCACAUGGUACGCCCAAAGCGAGGCCCGCUGCGUAGUGCCAUAACCCAGAGGUCGAUAGUACUGGAUCCCCCC
modifications: 2'-F pyrimidines
- Kd [1]: 0.586 nM

B2: FAM-F (ssRNA)
RNA: GGGAGAGAGGAAGAGGGAUGGGACCACGCGCCAACGUGUCAGCUACACGCCGUGUUCCCCGGCAUAACCCAGAGGUCGAUAGUACUGGAUCCCCCC
modifications: 2'-F pyrimidines
- Kd [2]: 0.37 nM

B3: Ev3 (ssRNA)
RNA: GGGAGAGAGGAAGAGGGAUGGGCACGGUCCAGCGCUAACUGUACCUGCUGUGCCACCCACCG
modifications: 2'-F pyrimidines
- binding result ([3]; DL650 for flow): binds

B4: FAM-C (ssRNA)
RNA: GGGAGAGAGGAAGAGGGAUGGGAAGAUCUGCUAAGUGCACGCACAAUCACCAUCGAGCGUCUCAUAACCCAGAGGUCGAUAGUACUGGAUCCCCCC
modifications: 2'-F pyrimidines
- Kd [4]: 0.428 nM

B5: FAM-B (ssRNA)
RNA: GGGAGAGAGGAAGAGGGAUGGGAGCCAGCUUUGCAUACCACGUGCAAUUCACUCCACCCGUCACAUAACCCAGAGGUCGAUAGUACUGGAUCCCCCC
modifications: 2'-F pyrimidines
- Kd [5]: 0.851 nM

B6: FAM-E (ssRNA)
RNA: GGGAGAGAGGAAGAGGGAUGGGCACGGUCCAGCGCUAACUGUACCUGCUGUGCCACCCACCGCAUAACCCAGAGGUCGAUAGUACUGGAUCCCCCC
modifications: 2'-F pyrimidines
- Kd [6]: 1.69 nM

B7: Fv3 (ssRNA)
RNA: GGGAGAGAGGAAGAGGGAUGGGACCACGCGCCAACGUGUCAGCUACACGCCGUGUUCCCCGG
modifications: 2'-F pyrimidines
- binding result [3]: binds

B8: Ev3.min22 (ssRNA)
RNA: GGGAGGAAGAGGGAUGGGCACGGUCCAGCGCUAACUGUACCUGCUGUGCCACCC
modifications: 2'-F pyrimidines
- binding result [7]: binds

B9: Dv2 (ssRNA)
RNA: GGGAGAGAGGAAGAGGGAUGGGCACAUGGUACGCCCAAAGCGAGGCCCGCUGCGUAGUGCC
modifications: 2'-F pyrimidines
- binding result [3]: binds

Binder: GGGAUGGGCACGGUCCAGCGCUAACUGUACCUGCUGUGCCACCC (ssRNA, 2'-F pyrimidines) [Ev3.min21]
- binding result [7]: binds

Binder: GGGAUGGGCACGGUCCAGCGCUAACUGUACCUGCUGUGCCACCCACCGC (ssRNA, 2'-F pyrimidines) [Ev2]
- binding result [8]: no binding

B10: Ev3.min24 (ssRNA)
RNA: GGGAGGAAGAGGGAUGGGCACGGUCCAGCGCACUGUACCUGCUGUGCCACCC
modifications: 2'-F pyrimidines
- binding result [7]: binds

B11: Bv1 (ssRNA)
RNA: GGAAGAGGGAUGGGUGCCAGCUUUGCAUACCACGUGCAAUUCACUCCACCCGUCAC
modifications: 2'-F pyrimidines
- binding result [3]: binds

B12: Ev5 (ssRNA)
RNA: GGAAGAGGGAUGGGCACGGUCCAGCGCUAACUGUACCUGCUGUGCCACCCACC
modifications: 2'-F pyrimidines
- binding result ([3]; DL650 for flow): binds
